How the values were obtained:
[1] = mouse, in vivo, 10 mg/kg; cited from earlier work
[2] = test system: human hypopharyngeal carcinoma squamous cell line FaDu; test: In vitro cytotoxicity test, FaDu cells, 6 days; type: cell-based; conditions: 6 days of culture
Experimental: (§1) 10% FBS (SH30406.05, HYCLONE) was added to RPMI 1640 (22400-071, Gibco), and the mixture was mixed well to prepare a BxPC3 cell (ATCC) growth medium. BxPC3 or FaDu cells were adjusted to a concentration of 50000 cells/mL with a growth medium, seeded into a 96-well white-bottom plate (167008, NUNC) at 50 µL per well (2500 cells/well), and incubated overnight in an incubator at 37 °C. The antibody was diluted with growth medium and serially diluted 5-fold from 200 nM (2×) to obtain 9 gradients, with the final concentration being […]. The diluted antibody-drug conjugate or control was added at 50 µL/well, and the total volume was 100 µL. […] The cell pellet was fully lysed by shaking on a plate shaker for 5 min, and the luminescence signal was stabilized by standing at room temperature for 10 min. The culture plate was tested on a microplate reader (spectra MAX i3x, Molecular Divices), the […] were taken, and the cell viability was calculated. […]
(§2) The cell proliferation inhibition rate after 6 days of culture was calculated using the following formula.
(§3) Cell proliferation inhibition rate (%) = […], where a: the average value of experimental sample-added wells after 6 days of culture; b: the average value of control medium-added wells after 6 days of culture. The data were fitted by GraphPad Prism and the IC50 of the drug was calculated (Table 4).

[3] = test system: drug-resistant triple-negative breast cancer (TNBC); conditions: patients with drug-resistant triple-negative breast cancer (TNBC); cited from earlier work
[4] = Days 1 and 8/every 21 days for 4 cycles; EMEA/H/C/005182/0000; cited from earlier work
[5] = test system: human pancreatic cancer cell line BxPC-3; test: In vitro cytotoxicity test, BxPC3 cells, 6 days; type: cell-based; conditions: BxPC3, 6 days of culture
Experimental: as §1, §2, §3

[6] = test system: Human gastric cancer cell line NCI-N87; test: Mouse xenograft tumor model NCI-N87; type: in vivo, immunodeficient mice CB17-SCID; conditions: intraperitoneal injection
Experimental: • 1. Mice: immunodeficient mice CB17-SCID (Vital River) aged 6-8 weeks were placed in an SPF experimental environment for 3-5 days before the experiment to better adapt to the current living environment. In all experiments, the long and short diameters of the tumor were measured twice a week using a vernier caliper, and the tumor volume (mm^3) was calculated from the measured data. The calculation formula is as follows: Tumor volume(mm^3) = 0.5 × long diameter(mm) × short diameter(mm) × short diameter(mm) [formula] • 2. Human gastric cancer cell line NCI-N87 (ATCC) cells were resuspended in 1× PBS (Gibco, 10010049) at an appropriate concentration, and the tumor cells were implanted subcutaneously in the right abdomen of the mice at an inoculation amount of 2×10^6 /mouse. When the tumor volume reached 150-200 mm^3, the mice were divided into groups such that the average initial administration volume of each group was substantially the same. After grouping, different doses of antibody-drug conjugates hRs7-DXd, hRS7-MB3 and hTINA1-DXd, or control-drug conjugates IgG-MB3, IgG-DXd and IgG control were administered by intraperitoneal injection. […] Compared with hRS7-DXd, hRS7-MB3 has a stronger tumor inhibitory effect. […] Non-small cell lung cancer cell line HCC827 cells purchased from ATCC were inoculated subcutaneously into mice (2×10^6 /mouse), and when the tumor volume reached 120-150 mm^3, the mice were grouped and administered. Different doses of the antibody-drug conjugate and the control drug were intraperitoneally injected into the mice, and the administration was performed only once throughout the experiment. The growth status of the mice was observed, and the changes in tumor volume of the mice were measured. […] The lung squamous cell carcinoma cell line LK-2 (CBP60105) purchased from Nanjing Cobioer Biosciences was implanted subcutaneously in the right abdomen of the mice at an inoculation amount of 3 × 10 ^6 cells/mouse. When the tumor volume reached 150-200 mm^3, the mice were divided into groups such that the average initial administration volume of each group was substantially the same. The mice were administered only once throughout the experiment and injected intraperitoneally at a dose of 10 mg/kg. IgG-MB3 or IgG-DXd was used as a negative control. It was observed that two TROP2-targeted ADCs were also able to delay tumor growth in a tumor model with relatively low TROP2 expression (FIG. 7). […] The pancreatic cancer cell line BxPC3 cells purchased from ATCC were implanted subcutaneously in the right abdomen of the mice at an inoculation amount of 3 × 10 ^6 cells/mouse. […]

[7] = target: human TROP2 protein on the surface of FaDu cells (human) (UniProt P09758); test: flow cytometry on FaDu cells, fluorescent secondary antibody
[8] = target: Rhesus Monkey Trop2 protein (Sino Biological 90893-C08H) (rhesus monkey); test: BLI (Octet Red96e), antibody on AHC sensor, antigen 100 nM
[9] = target: Recombinant human TROP2 protein (Sino Biological) (human) (UniProt P09758); test: as above
[10] = target: T1, rat TROP2 (Sino Biological 86246-R08H) (rat, UniProt A0ABK0L8S5 21-268); test: BLI (Octet Red96e), antibody on AHC sensor, antigen in solution
T1 construct: Bought recombinant protein
T1 sequence: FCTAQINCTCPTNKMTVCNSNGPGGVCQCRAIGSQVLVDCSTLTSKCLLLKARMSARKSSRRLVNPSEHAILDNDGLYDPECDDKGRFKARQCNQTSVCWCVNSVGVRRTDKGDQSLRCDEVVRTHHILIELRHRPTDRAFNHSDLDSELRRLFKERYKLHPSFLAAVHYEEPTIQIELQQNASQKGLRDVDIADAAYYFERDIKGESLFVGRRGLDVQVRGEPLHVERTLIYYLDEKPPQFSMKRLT

[11] = target: T2, mouse TROP2 (Sino Biological 50922-M08H) (mouse, UniProt Q8BGV3 25-270); test: as above
T2 construct: Bought recombinant protein
T2 sequence (looked up): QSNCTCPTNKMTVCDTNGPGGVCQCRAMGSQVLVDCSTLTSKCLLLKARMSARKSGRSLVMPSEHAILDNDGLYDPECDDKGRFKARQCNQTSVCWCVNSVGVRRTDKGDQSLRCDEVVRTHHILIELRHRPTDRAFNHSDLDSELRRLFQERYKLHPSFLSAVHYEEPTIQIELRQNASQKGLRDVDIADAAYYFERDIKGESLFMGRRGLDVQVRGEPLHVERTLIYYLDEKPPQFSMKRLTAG

[12] = target: T3, human TROP2 protein on the surface of FaDu cells (human, UniProt P09758 27-323); test: flow cytometry on FaDu cells, fluorescent secondary antibody
T3 construct: whole, on cells; also called TROP2 protein on cell surface; human TROP2 protein at the cellular level
T3 sequence (looked up): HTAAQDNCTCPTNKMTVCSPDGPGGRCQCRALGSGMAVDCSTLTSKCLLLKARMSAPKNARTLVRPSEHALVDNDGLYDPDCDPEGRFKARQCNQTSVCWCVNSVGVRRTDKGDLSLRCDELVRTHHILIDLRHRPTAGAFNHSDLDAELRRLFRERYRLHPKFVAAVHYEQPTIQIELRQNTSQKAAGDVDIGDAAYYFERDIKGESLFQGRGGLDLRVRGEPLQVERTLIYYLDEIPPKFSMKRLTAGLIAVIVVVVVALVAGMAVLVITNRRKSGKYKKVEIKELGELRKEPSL

[13] = target: T4, Recombinant human TROP2 protein (Sino Biological) (human, UniProt P09758 27-274); test: BLI (Octet Red96e), antibody on AHC sensor, antigen 100 nM
T4 construct: Bought recombinant protein; The two paragraphs give different catalogue numbers; also called TACSTD2
T4 sequence (looked up): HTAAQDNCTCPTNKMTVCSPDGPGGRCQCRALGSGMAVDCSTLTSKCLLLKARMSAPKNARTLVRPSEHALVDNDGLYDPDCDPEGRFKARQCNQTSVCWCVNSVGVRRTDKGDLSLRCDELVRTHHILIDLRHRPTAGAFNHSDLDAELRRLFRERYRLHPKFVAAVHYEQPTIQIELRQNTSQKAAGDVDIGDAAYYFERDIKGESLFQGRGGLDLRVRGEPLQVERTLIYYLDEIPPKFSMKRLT

[14] = target: T5, Rhesus Monkey Trop2 protein (Sino Biological 90893-C08H) (rhesus monkey, UniProt A0A5F8AGB8 27-274); test: as above
T5 construct: Bought recombinant protein
T5 sequence: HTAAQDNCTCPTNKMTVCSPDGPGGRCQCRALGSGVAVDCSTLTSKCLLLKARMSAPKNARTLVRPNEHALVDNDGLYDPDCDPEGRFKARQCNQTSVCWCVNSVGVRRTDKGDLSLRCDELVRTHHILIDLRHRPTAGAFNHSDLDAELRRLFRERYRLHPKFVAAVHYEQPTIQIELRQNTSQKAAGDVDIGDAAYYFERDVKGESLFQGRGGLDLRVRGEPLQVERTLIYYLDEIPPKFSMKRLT

**Q.** What does the source list for Trodelvy [reference compound]?
**A.** half-life in mice [1]: 11 h; IC50 [2]: 0.53 nM; objective response rate (ORR) [3]: 33%; HNSTD [4]: 50 mg/kg; IC50 [5]: 0.42 nM

**Q.** Which results are given for “hRS7-DXd: antibody hRS7 conjugated with Linker-DXd, average DAR 4.4 [reference compound]”?
**A.** tumor inhibitory effect ([6]; high-dose group (3 mg/kg)): comparable tumor inhibitory effects; tumor inhibitory effect ([6]; low dose (1 mg/kg), compared with IgG-MB3 and IgG-DXd): a certain degree of tumor inhibitory effect

**Q.** Which results are given for “hTINA1 (the antibody used in Ds-1062), positive control antibody”?
**A.** EC50 [7]: 1.7 nM; Kd [8]: 32.5 nM; Response [8]: 0.21; koff [8]: 0.00356 s⁻¹; kon [8]: 110000 M⁻¹ s⁻¹; Kd [9]: 22.8 nM; Response [9]: 0.284; koff [9]: 0.0035 s⁻¹; kon [9]: 154000 M⁻¹ s⁻¹

B1: hRS7 antibody (hRS7-IgG1), humanized antibody targeting TROP2 in IgG1 form (antibody, V domains shown)
VH: QVQLQQSGSELKKPGASVKVSCKASGYTFTNYGMNWVKQAPGQGLKWMGWINTYTGEPTYTDDFKGRFAFSLDTSVSTAYLQISSLKADDTAVYFCARGGFGSSYWYFDVWGQGSLVTVSS
VL: DIQLTQSPSSLSASVGDRVSITCKASQDVSIAVAWYQQKPGKAPKLLIYSASYRYTGVPDRFSGSGSGTDFTLTISSLQPEDFAVYYCQQHYITPLTFGAGTKVEIKR
**Q.** Does B1 bind [10]?
**A.** no binding (tested: 100 nM)

**Q.** Does B1 bind [11]?
**A.** no binding (tested: 100 nM)

**Q.** What about the EC50 [12] of the same molecule?
**A.** 1.58 nM

**Q.** And the Kd [13]?
**A.** 4.52 nM

**Q.** What about the koff [13] of the same molecule?
**A.** 0.00056 s⁻¹

**Q.** What about the kon [13] of the same molecule?
**A.** 124000 M⁻¹ s⁻¹

**Q.** What about the Kd [14] of the same molecule?
**A.** 7.75 nM

**Q.** And the koff [14]?
**A.** 0.000823 s⁻¹

**Q.** And the kon [14]?
**A.** 106000 M⁻¹ s⁻¹

From EP4785962A1, “ANTIBODY-DRUG CONJUGATE TARGETING TROP2, AND PREPARATION METHOD AND USE THEREFOR” (priority 2023, dated 2025)
